The target of experiment [1] is T1, ctPan2 Δ343–352 (PID deletion in full-length ctPan2) (Chaetomium thermophilum, UniProt G0SAK8 1-1170, Δ343–352).
T1 sequence (looked up): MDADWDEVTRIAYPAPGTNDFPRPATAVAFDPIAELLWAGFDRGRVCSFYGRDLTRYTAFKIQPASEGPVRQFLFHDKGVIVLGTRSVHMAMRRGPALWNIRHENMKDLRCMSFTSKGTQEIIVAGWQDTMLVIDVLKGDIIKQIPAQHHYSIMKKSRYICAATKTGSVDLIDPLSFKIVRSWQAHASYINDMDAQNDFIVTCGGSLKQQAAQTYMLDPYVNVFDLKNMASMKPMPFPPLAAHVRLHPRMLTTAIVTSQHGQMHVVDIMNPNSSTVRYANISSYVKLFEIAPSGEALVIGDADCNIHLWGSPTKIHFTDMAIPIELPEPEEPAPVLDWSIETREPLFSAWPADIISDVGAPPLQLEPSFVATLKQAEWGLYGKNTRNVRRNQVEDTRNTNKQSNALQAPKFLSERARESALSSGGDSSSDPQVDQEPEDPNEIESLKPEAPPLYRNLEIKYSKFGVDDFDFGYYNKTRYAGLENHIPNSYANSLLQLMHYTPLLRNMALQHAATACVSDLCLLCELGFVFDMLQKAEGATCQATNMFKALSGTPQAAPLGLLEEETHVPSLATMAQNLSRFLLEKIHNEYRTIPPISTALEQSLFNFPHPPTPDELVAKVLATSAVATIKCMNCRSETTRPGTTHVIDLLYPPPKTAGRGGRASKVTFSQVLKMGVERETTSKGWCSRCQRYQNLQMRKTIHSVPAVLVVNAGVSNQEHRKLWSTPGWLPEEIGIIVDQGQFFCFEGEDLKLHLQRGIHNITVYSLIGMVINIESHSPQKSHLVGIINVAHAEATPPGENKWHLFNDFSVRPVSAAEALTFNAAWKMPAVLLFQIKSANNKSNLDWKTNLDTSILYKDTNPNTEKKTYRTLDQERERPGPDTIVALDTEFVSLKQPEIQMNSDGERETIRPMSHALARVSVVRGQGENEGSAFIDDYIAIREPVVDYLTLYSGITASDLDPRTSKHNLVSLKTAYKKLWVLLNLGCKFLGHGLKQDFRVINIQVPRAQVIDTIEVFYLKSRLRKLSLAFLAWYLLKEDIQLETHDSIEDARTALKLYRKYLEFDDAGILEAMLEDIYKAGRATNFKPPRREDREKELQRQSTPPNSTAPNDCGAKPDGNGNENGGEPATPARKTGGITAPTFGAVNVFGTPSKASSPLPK
The experiment is described as follows: SEC; separately purified ctPan2 constructs and ctPan3 PKC dimer mixed 1:1 at 1 μM, 15 min at room temperature; Superdex 200 Increase 3.2/300 in 20 mM Tris pH 8.0, 500 mM NaCl, 2 mM TCEP; fractions on SDS–PAGE. To be noted: both partners purified. Background: In gel filtration, larger molecules generally elute earlier.

The target in experiment [2] is T2, ctPan2 Δ343–375 (PID deletion in full-length ctPan2) (Chaetomium thermophilum, UniProt G0SAK8 1-1170, Δ343–375).
T2 sequence (looked up): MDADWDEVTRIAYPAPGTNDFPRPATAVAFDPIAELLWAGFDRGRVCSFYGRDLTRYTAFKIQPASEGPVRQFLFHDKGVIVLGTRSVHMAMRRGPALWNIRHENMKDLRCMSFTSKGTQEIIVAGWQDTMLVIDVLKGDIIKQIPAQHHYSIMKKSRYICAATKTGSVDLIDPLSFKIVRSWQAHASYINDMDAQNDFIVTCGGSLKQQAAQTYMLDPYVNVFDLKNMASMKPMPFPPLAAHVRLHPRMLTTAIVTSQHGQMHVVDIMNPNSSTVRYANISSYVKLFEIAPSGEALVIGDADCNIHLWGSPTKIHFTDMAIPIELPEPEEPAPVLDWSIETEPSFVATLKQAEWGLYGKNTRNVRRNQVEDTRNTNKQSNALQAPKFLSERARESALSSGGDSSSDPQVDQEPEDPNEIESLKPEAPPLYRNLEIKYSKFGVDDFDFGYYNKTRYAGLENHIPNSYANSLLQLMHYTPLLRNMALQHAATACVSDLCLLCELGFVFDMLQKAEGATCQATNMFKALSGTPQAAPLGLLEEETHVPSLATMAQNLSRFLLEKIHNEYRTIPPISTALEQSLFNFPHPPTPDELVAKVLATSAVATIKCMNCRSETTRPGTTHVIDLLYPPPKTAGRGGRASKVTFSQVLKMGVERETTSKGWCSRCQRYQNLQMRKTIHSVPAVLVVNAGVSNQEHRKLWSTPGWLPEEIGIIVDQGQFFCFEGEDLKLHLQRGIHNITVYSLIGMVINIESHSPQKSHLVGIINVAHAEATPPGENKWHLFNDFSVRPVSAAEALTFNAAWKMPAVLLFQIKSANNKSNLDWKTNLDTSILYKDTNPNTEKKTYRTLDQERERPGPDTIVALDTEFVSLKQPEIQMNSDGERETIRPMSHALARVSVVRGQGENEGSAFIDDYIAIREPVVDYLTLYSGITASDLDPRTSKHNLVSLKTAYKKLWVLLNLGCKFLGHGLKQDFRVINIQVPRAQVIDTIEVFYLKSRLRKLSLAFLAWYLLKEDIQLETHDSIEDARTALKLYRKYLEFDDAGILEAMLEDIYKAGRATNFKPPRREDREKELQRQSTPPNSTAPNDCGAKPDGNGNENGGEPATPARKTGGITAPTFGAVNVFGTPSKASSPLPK
Described as above. To be noted: both partners purified.

B1: ctPan3 pseudokinase/C-terminal domain (PKC, residues 205–640), purified from E. coli (domain or fragment, Chaetomium thermophilum, UniProt G0S0Y3 205-640, looked up)
chain: RQELQPWQRATYDFFMPQNLREDLQKKQFATLQVIPNSGLPQLEHWHSLVPLDTSNRKNTSCFGYPSWVYKAQNSRNGRHYALRRLEGYRLTNEKAILNVMKDWKKIKNASIVTIHEVFTTREFGDSSLIFAYDFHPLSKTLQEHHFQPIHGNRYRPPPAVPENTIWGYICQIANALKTIHSNRLAARCLEPSKIILTDINRIRLSACAILDVVQFGMNSRSVVELQQEDFVKFGKLILSLATGTLPAHLNNIPAALETLGNKYSANLKSAVNWLLDTSSGETKTIEHFMTGIASQMTTFFDLALQDNDEKLFHLAREVENGRIARSLMKLLTILERGDYDGVPSWSETGDRYQLKLFRDYVFHRVDADGKPNLSIGHMLTCMSKLEAGVDENILLTSRDNETVFVLSYRELRQMYDRAFNELVKASKTGAPGANT
notes: Pan3, Chaetomium thermophilum, pseudokinase (242-497), coiled coil (499-538) and C-terminal domain (555-640), construct residues 205-640; The crystals of ctPan3 PKC alone (PDB 4CYI) were of Se-Met-labelled protein; also called ctPan3 PKC; ctPan3 PKC dimer; source: E. coli, purified (glutathione Sepharose)
B1: the binding result in experiment [1] and in experiment [2] was “binds” throughout.

The values above are taken from publication PMC4158885 (The EMBO Journal, 2014).
